The assay concerns the target T1, HIS-ABI3 fusion protein (Arabidopsis thaliana, UniProt Q01593 1-720).
T1 sequence (looked up): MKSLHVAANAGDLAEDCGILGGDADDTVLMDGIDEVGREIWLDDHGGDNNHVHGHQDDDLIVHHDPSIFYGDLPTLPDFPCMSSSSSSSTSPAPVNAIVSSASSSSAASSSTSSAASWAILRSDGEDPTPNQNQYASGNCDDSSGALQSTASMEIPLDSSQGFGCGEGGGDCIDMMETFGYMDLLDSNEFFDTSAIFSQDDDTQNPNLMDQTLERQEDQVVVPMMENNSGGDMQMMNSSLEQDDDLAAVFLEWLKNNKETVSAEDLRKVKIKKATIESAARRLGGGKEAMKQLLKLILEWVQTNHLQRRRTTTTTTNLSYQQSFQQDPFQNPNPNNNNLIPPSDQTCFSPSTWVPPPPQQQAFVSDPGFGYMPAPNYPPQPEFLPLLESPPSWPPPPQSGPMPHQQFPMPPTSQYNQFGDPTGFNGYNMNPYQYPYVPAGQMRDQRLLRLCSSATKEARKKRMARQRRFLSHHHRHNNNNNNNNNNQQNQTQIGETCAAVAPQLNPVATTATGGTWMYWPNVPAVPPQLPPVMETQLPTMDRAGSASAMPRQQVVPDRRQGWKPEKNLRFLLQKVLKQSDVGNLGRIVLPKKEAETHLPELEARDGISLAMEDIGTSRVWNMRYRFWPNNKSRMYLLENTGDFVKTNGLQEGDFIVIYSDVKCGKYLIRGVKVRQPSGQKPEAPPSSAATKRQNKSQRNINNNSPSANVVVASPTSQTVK
The assay can be described thus: pull-down.

Results on 1 molecule are retold here after publication doi:10.1101/2023.03.08.531793 (bioRxiv, 2023).

B1: GST-ERF1 fusion protein (natural protein)
chain: not shown
For the molecule B1, the binding result is “binds”.
